Biological target: CdPpiB wild type fused to the T25 subunit of adenylate cyclase (pKNTB) (C. difficile str. 630Δerm) (UniProt Q18D70)
Experiment: two-hybrid; BACTH in E. coli BTH101; β-galactosidase assay (ONPG, 12 min, 30°C) in Miller Units, cultures grown o/n at 30°C with 0.5 mM IPTG

Substance: Lrp P87A fused to the T18 subunit of adenylate cyclase (natural protein)
- β-galactosidase activity: 869 MU

Source: publication PMC6459899, “Pleiotropic Clostridioides difficile Cyclophilin PpiB Controls Cysteine-Tolerance, Toxin Production, the Central Metabolism and Multiple Stress Responses” (Frontiers in Pharmacology, 2019)
